Measured values reported in patent US7056679 (ANTYRA, dated 2006).

T1: DGI-2 polypeptide (UniProt Q15004 1-111, limits assumed)
T1 construct: Vector-derived residues or tag of pIVEX2.3 are not described for this construct; also called KIAA0101
T1 sequence (looked up): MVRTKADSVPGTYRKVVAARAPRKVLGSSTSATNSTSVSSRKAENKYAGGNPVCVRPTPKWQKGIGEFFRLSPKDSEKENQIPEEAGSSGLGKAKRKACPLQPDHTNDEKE

B1: DGI-2-20F-3-A7 (peptide)
peptide: LSLLSVVVRSMGASAPQRQVAAAGAPVPYPDPLEPRP
notes: not shown: phage gene III coat protein (pCANTAB5E)
B2: DGI-2-40F-3-D6 (peptide)
peptide: GLEPVPFQTDKRIAMGWTREWLVNGYGAAHRRDARMQSGHAAAGAPVPYPDPLEPRP
notes: as for B1
B3: DGI-2-20R-3-C10 (peptide)
peptide: SLSLYWDAQVGCEVFWGYCVAAAGAPVPYPDPLEPRP
notes: as for B1
B4: DGI-2-40F-4-F12 (peptide)
peptide: GLYRRAGDASVGFSRWGRFDCQVYFSVECLLGSSWGGYSAAAGAPVPYPDPLEPRP
notes: as for B1
B5: DGI-2-20F-3-B102 (peptide)
peptide: GLRACDTYLGFCVGARRIDDAAAGAPVPYPDPLEPRP
notes: as for B1
B6: DGI-2-20F-3-C2 (peptide)
peptide: MAVLPAARDFGGVVQGGVSGAAAGAPVPYPDPLEPRP
notes: as for B1
B7: DGI-2-20F-3-B1 (peptide)
peptide: LSRIWRGVIESAREVESRGIAAAGAPVPYPDPLEPRP
notes: as for B1
B8: DGI-2-20R-4-F6 (peptide)
peptide: GNKCFPPHDLFWDPCDQLQSAAAGAPVPYPDPLEPRP
notes: as for B1
B9: DGI-2-40F-3-D7 (peptide)
peptide: ALRSLGSGGFGWQAGRASPQGMTHFPYFGWSGMPTARVRPAAAGAPVPYPDPLEPRP
notes: as for B1
B10: DGI-2-40F-3-A24 (peptide)
peptide: RCFQDGRMLALSPTYLIRRSVSPLVVGPLPTPAAAGAPVPYPDPLEPRP
notes: as for B1
B11: DGI-2-20R-4-E2 (peptide)
peptide: TANGHRYGGCGLWCKWMSGMAAAGAPVPYPDPLEPRP
notes: as for B1
B12: DGI-2-20F-3-D112 (peptide)
peptide: YDQVWNSLLAAVLGGQELVNAAAGAPVPYPDPLEPRP
notes: as for B1
B13: DGI-2-20R-4-G32 (peptide)
peptide: LSVFRPGQFPHVGARGVSRTAAAGAPVPYPDPLEPRP
notes: as for B1
B14: DGI-2-40F-3-B10 (peptide)
peptide: MQAASTLSTYMGAIRMGYPILHWDRGGVQRVDPGLYRGRVAAAGAPVPYPDPLEPRP
notes: as for B1
B15: DGI-2-20R-4-G8 (peptide)
peptide: GMWIRPNGHMFLQGGYTARSAAAGAPVPYPDPLEPRP
notes: as for B1
B16: DGI-2-40F-3-D12 (peptide)
peptide: QGSAHVVRPPGVYDVPWKVGMFFHPQNWPNSWGRAYFRSGAAAGAPVPYPDPLEPRP
notes: as for B1
B17: DGI-2-40F-3-B72 (peptide)
peptide: PKDGAAFKGSDFIQGGQTVMERAPALWWRDGGGQWEAPSTAAAGAPVPYPDPLEPRP
notes: as for B1
B18: DGI-2-20R-4-E5 (peptide)
peptide: LHRLGQSMGGTLDHLQGWGVAAAGAPVPYPDPLEPRP
notes: as for B1
B19: DGI-2-40F-3-B122 (peptide)
peptide: HSGNRQSGSRRTHLLNIFCSSDTFVFPGWSAYLSRVCPGDAAAGAPVPYPDPLEPRP
notes: as for B1
B20: DGI-2-40F-3-B116 (peptide)
peptide: GVVRAQQGLRYELQGDRYRLRRTQWLTVTYCSPSWAFAGCAAAGAPVPYPDPLEPRP
notes: as for B1
B21: DGI-2-40F-3-C7 (peptide)
peptide: HPWVTNMLVFQRPPPPGFWLSDTTPRQRNGLGQVERPSVDAAAGAPVPYPDPLEPRP
notes: as for B1
B22: DGI-2-20F-3-B7 (peptide)
peptide: WAGSTDLWQLWSLWVKPELRAAAGAPVPYPDPLEPRP
notes: as for B1
B23: DGI-2-20R-3-C12 (peptide)
peptide: RWSLPAYLCRFVSQASCNSRAAAGAPVPYPDPLEPRP
notes: as for B1
B24: DGI-2-40F-3-C52 (peptide)
peptide: GLLFTSSPYQCFWVHCTLTMSPLSVLGDLSSTIGRMRASRAAAGAPVPYPDPLEPRP
notes: as for B1
B25: DGI-2-20R-3-D5 (peptide)
peptide: VAFGEQIRVAMAGTLWQRWRAAAGAPVPYPDPLEPRP
notes: as for B1
B26: DGI-2-40F-3-D9 (peptide)
peptide: RRTSADTDQLSRWEGAQAFSSLRSALSERLDSLRPGLPPSAAAGAPVPYPDPLEPRP
notes: as for B1
B27: DGI-2-40F-3-B11 (peptide)
peptide: LAPMFLQNQVRTWAASRRPLPAGPSNARCETGSLSPWVPCAAAGAPVPYPDPLEPRP
notes: as for B1
B28: DGI-2-20F-3-A6 (peptide)
peptide: FSSTGILLRSGRATAVGHVTAAAGAPVPYPDPLEPRP
notes: as for B1
B29: DGI-2-40F-3-C6 (peptide)
peptide: QMFSKGNWLAHPEGGVALGLSRESQLFRSCREFGYCMGPMAAAGAPVPYPDPLEPRP
notes: as for B1
B30: DGI-2-20R-4-G6 (peptide)
peptide: PAMGHCMQVLGPVLEGRSRDQVGRAAAGAPVPYPDPLEPRP
notes: as for B1
B31: DGI-2-20C-3-C65 (peptide)
peptide: TPDRCLIYSSIQCLLEYSARRGSADAAAGAPVPYPDPLEPRP
notes: as for B1
B32: DGI-2-20R-4-E4 (peptide)
peptide: LTWGPQFGSLQVYSRHRGLPAAAGAPVPYPDPLEPRP
notes: as for B1
B33: DGI-2-20C-3-D12 (peptide)
peptide: LVIQCSASVVACDLYWNYVGCLAAGAAAGAPVPYPDPLEPRP
notes: as for B1
B34: DGL-2-40F-3-D10 (peptide)
peptide: TLVTEGNKGSVKAHKDIGVWQLWWDWLSVTDSETVGRVSHAAAGAPVPYPDPLEPRP
notes: as for B1
B35: DGL-2-20R-3-D6 (peptide)
peptide: ACSVGTALVFPQRWWYLGRSAAAGAPVPYPDPLEPRP
notes: as for B1
B36: DGI-2-20F-3-C3 (peptide)
peptide: FSSVLGLLDRRGVPVVVGEDAAAGAPVPYPDPLEPRP
notes: as for B1
B37: DGI-2-40F-3-C92 (peptide)
peptide: RFWSVSYQGGRVMCREWGYCLPIAAAGAPVPYPDPLEPRP
notes: as for B1

What follows are binders tested against T1, DGI-2 polypeptide (assay: phage ELISA, 405 nm; DGI-2 coated).
Description: (§1) For analysis of individual target binders, colonies were picked and phage prepared as described above using helper phage, M13KO7. Ninety-six-well microtiter plates were coated with 500 ng/well of specific target protein, 500 ng/well lactate dehydrogenase (LDH) irrelevant or non-specific target, 500 ng/well of positive control antibody raised against ETAG, and negative control of non-fat milk powder-PBS 2% at 4° C. overnight. Plates were then blocked with 350 microliters/well PBS containing 2% non-fat milk for 1 hr at room temperature. One hundred microliters per well of phage from isolated clones were added and plates were incubated at room temperature for 2 hr after centrifuging samples for 20 minutes at 3500 rpm at 4° C. The phage solution was then removed, and the wells were washed three times with PBS at room temperature. Antibody raised against M13 conjugated to horseradish peroxidase (Pharmacia) was diluted 1:3000 in PBS-Tween and added to each well (100 µl/well). Incubation was for 1 hr at room temperature, followed by washing with PBS-(0.5%) Tween 3 times as described. Color was developed by addition of ABTS solution (100 µl/well; Boehringer, Indianapolis, Ind.). Plates were analyzed at 405 nm. A clone was considered "positive" if the $A405$ of the well was $\geq$2-fold over background.

In order of rising “DGI-2 (OD)” value:
1. B17  1 OD
2. B24  1 OD
3. B26  1.1 OD
4. B33  1.1 OD
5. B36  1.1 OD
6. B7  1.2 OD
7. B18  1.2 OD
8. B21  1.2 OD
9. B6  1.3 OD
10. B10  1.3 OD
11. B14  1.3 OD
12. B12  1.4 OD
13. B13  1.4 OD
14. B15  1.5 OD
15. B25  1.5 OD
16. B28  1.5 OD
17. B34  1.5 OD
18. B22  1.6 OD
19. B23  1.6 OD
20. B30  1.6 OD
21. B32  1.6 OD
22. B19  1.7 OD
23. B20  1.7 OD
24. B27  1.8 OD
25. B31  1.8 OD
26. B1  2.1 OD
27. B37  2.1 OD
28. B3  2.2 OD
29. B4  2.2 OD
30. B35  2.2 OD
31. B8  2.3 OD
32. B16  2.3 OD
33. B29  2.3 OD
34. B5  2.4 OD
35. B2  2.5 OD
36. B9  2.6 OD
37. B11  2.7 OD

What follows are binders tested against T2, antibody raised against ETAG (assay: phage ELISA, 405 nm; anti-E-tag antibody coated).
T2 construct: read-out of display; also called E-tag antibody; E tag antibody
Description: as §1

In order of falling “ETAG (OD)” value:
1. B12  19.9 OD
2. B11  18.2 OD
3. B32  18.1 OD
4. B5  18 OD
5. B18  17.9 OD
6. B22  16.4 OD
7. B26  15.8 OD
8. B3  14.7 OD
9. B23  14.6 OD
10. B15  14.5 OD
11. B8  13.2 OD
12. B28  13.2 OD
13. B35  12.9 OD
14. B10  11.7 OD
15. B36  11.6 OD
16. B6  11.5 OD
17. B30  11.5 OD
18. B2  11.4 OD
19. B7  11.4 OD
20. B13  11 OD
21. B19  11 OD
22. B17  10.4 OD
23. B9  10.3 OD
24. B34  10.3 OD
25. B29  10.1 OD
26. B37  9.8 OD
27. B21  8.8 OD
28. B4  8.7 OD
29. B25  8.5 OD
30. B27  7.9 OD
31. B31  7.4 OD
32. B16  7.3 OD
33. B1  7 OD
34. B20  6.5 OD
35. B14  4.8 OD
36. B24  4.6 OD
37. B33  3.6 OD

What follows are binders tested against T1, DGI-2 polypeptide (assay: phage ELISA, 405 nm; DGI-2 signal over LDH signal).
Description: as §1

In order of rising “DGI-2/LDH (OD)” value:
1. B18  1.1 ratio
2. B33  1.1 ratio
3. B36  1.1 ratio
4. B7  1.2 ratio
5. B13  1.2 ratio
6. B6  1.3 ratio
7. B17  1.3 ratio
8. B24  1.3 ratio
9. B32  1.3 ratio
10. B10  1.4 ratio
11. B12  1.4 ratio
12. B14  1.4 ratio
13. B15  1.4 ratio
14. B25  1.4 ratio
15. B26  1.4 ratio
16. B28  1.4 ratio
17. B30  1.4 ratio
18. B21  1.5 ratio
19. B22  1.6 ratio
20. B23  1.6 ratio
21. B34  1.7 ratio
22. B31  1.8 ratio
23. B20  2 ratio
24. B27  2 ratio
25. B3  2.1 ratio
26. B35  2.1 ratio
27. B19  2.2 ratio
28. B8  2.3 ratio
29. B1  2.4 ratio
30. B4  2.5 ratio
31. B5  2.5 ratio
32. B11  2.5 ratio
33. B16  2.5 ratio
34. B2  2.6 ratio
35. B9  2.6 ratio
36. B37  2.6 ratio
37. B29  2.8 ratio
